From US7407671B2, “Temperature controlled solute delivery system” (Boston Scientific Scimed, Inc., priority 1998, dated 2008)

Assay: Solute release from bonded HPC gel membranes (modified HPLC system)
Assay type: physicochemical
Protocol: Solute release tests were conducted in the same manner as for PNIPA gels, as described in Example 1. The solute release experiments were designed to model the actual conditions of catheter use, which entail therapeutic solute loading at room temperature (25° C.), insertion of the catheter into the patient at 37° C., and temperature induced enhanced solute release when the catheter is placed at a target location in the body. While the experimental design was generally successful in modeling the actual use of catheter, heat lost to the experimental apparatus tubing reduced the 37° C. test temperature to 33° C. Because the transition temperature of HPC is fairly sharp (in this case, 43° C.), the reduction of test temperature from 37° C. to 33° C. had little impact on the test results.
Solute release experiments were conducted under four constant temperature conditions and three step change conditions. […] Thus, test temperatures below and above the transition temperature of HPC (43° C.) were used. […]

B1: ovalbumin: ovalbumin (M.w. 45,000 Da), model protein for bioactive proteins such as urokinase (protein, UniProt P01012 2-386, looked up)
Ovalbumin: GSIGAASMEFCFDVFKELKVHHANENIFYCPIAIMSALAMVYLGAKDSTRTQINKVVRFDKLPGFGDSIEAQCGTSVNVHSSLRDILNQITKPNDVYSFSLASRLYAEERYPILPEYLQCVKELYRGGLEPINFQTAADQARELINSWVESQTNGIIRNVLQPSSVDSQTAMVLVNAIVFKGLWEKAFKDEDTQAMPFRVTEQESKPVQMMYQIGLFRVASMASEKMKILELPFASGTMSMLVLLPDEVSGLEQLESIINFEKLTEWTSSNVMEERKIKVYLPRMKMEEKYNLTSVLMAMGITDVFSSSANLSGISSAESLKISQAVHAAHAEINEAGREVVGSAEAGVDAASVSEEFRADHPFLFCIKHIATNAVLFFGRCVSP
HPC gel membrane 0.66 mm, first two minutes at 24° C.
  solute released before the temperature change: 11%
HPC gel membrane 0.66 mm, isothermal 24° C.
  solute released within the first 7 minutes of the test: about 30%
HPC gel membrane 0.66 mm, step 24° C. to 46° C.
  solute released in the five minutes immediately after the temperature change: 54%
HPC gel membrane 0.66 mm, step 24° C. to 46° C. after about two minutes
  solute released within the first 7 minutes of the test: about 65%
Triggered release from HPC gel
  ratio of the area of the convective pulse to the area of the isothermal release curve: much greater for ovalbumin than for methyl orange or estradiol
